Reference: patent US5807824A, “C5A receptor antagonists having substantially no agonist activity” (priority 1995, dated 1998)

Key:
[1] = target: T1, C5a receptor (Homo sapiens, UniProt P21730); experiment: Receptor binding assay: displacement of [125I]Bolton-Hunter labelled C5a from PMNL membranes
T1 construct: Neutrophils were purified from human peripheral blood; endogenous in cells; host or cells: neutrophils from human peripheral blood
T1 sequence (P21730 1-350): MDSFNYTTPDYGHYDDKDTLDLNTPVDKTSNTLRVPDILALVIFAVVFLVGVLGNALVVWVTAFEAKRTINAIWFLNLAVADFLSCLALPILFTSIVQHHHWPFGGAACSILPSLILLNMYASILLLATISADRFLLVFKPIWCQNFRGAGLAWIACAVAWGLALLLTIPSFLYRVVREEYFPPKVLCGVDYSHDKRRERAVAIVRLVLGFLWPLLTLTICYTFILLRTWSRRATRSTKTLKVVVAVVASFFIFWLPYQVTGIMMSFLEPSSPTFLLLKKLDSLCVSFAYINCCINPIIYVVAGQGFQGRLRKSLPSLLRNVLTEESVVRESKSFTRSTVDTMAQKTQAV
Experimental: C5a and C5a receptor antagonists were tested for their affinity for the C5a receptor. […] PMNLs were resuspended in Hanks balanced salt solution, without Ca^++ and Mg^++ and which contained 10 mM HEPES at pH 7.3, 2.5 mM MgCl2, 100 units/ml DNAse I, 0.1 mM PMSF, 10 μg/ml aprotonin and 10 μg/ml leupeptin. They were then equilibrated at 400 psi for 20 min at 4° C. in a nitrogen cavitation bomb. After evacuation into 3 volumes 0.5M KHCO3 containing 25 mM EDTA and the protease inhibitors listed above, the gelatinous material was removed with forceps and the mixture was centrifuged at 400×g for 10 min at 4° C. The resulting supernatant was centrifuged at 50,000×g for 60 min at 4° C. The pellets from the aliquots representing 200×10^6 cells were stored at -70° C. For binding studies, these membranes were resuspended at an equivalent of 20×10^6 cells/ml in 50 mM HEPES at pH 7.3, containing 1 mM CaCl2, 5 mM MgCl2, 0.1 mM PMSF, 0.1% bacitracin and 0.5% BSA.
Nonspecific binding was determined in the presence of 10 nM unlabelled C5a. The binding reaction was initiated by the addition of the PMNL membranes and was continued for 120 min at 4° C. Bound and free radioactivity were separated by vacuum filtration through GF/C glass fiber filters (Whatman), pretreated for 90 min with 0.05% PEI (polyethyleneimine) using a Cell Harvester (Brandel, Gaithersburg, Md.). Filters were washed with 3×5 ml of ice-cold 5 mM Tris buffer at pH 7.4 and counted in a multiwell Gamma counter (Genesys). Data were analyzed using the non-linear regression analysis program, RS/1 (Bolt, Beranek and Newman, Boston) and expressed as IC50 values. The results are set forth below in Table 4 as Ki values using the Cheng-Presoff equation. See Braunwalder et al., supra.

[2] = tested on: C5a-induced enhancement in vascular permeability; experiment: Rabbit dermal model of inflammation ([125I]-BSA exudation at intradermal sites); format: in vivo, New Zealand White rabbits
Experimental: All experiments were performed on male New Zealand White rabbits weighing 2.5-3.0 kg. The backs of the rabbits were shaved and 40-50 skin sites were designated with markers of different colors. Different stimuli (i.e., C5a, C5a analogue, C5a+C5a analogue, vehicle control, etc.) were injected intradermally at 0.1 ml/site using a sterile, disposable, 26 gauge, 0.5 in. needle and 1.0 cc tuberculin syringe. I.D. injections were administered in replicates of six, roughly 45 minutes before euthanization. C5a alone was injected at a dose of 50 ng/site, and the C5a receptor antagonists were co-injected at various concentrations with the same dose of C5a. At 20 minutes prior to euthanization, 18-36 uCi of [125I]-labeled bovine serum albumin in 1.0 ml physiological saline were introduced into the systemic circulation via the marginal auricular vein. At 45 minutes, the rabbit was euthanized with an I.V. overdose of sodium pentobarbital. […]
After death, the dorsal skin was excised and pinned to a wooden dissecting board. […] This procedure reduced variation among skin sites and decreased background radioactivity. […] Injection sites were then analyzed for their radioactive content using a Gamma Counter (Genesys).

[3] = tested on: C5a-induced neutropenia; experiment: C5a-induced neutropenia in the rabbit; format: in vivo, New Zealand White rabbits; details: i.v. bolus; for Inhibition of C5a-induced neutropenia versus vehicle-treated rabbits: 100 ng C5a
Experimental: All experiments were performed on male New Zealand White rabbits weighing 2.5-3.0 kg. Rabbits were anesthetized with 10 mg/kg xylazine and 50 mg/kg ketamine administered in combination intramuscularly. A 25 gauge butterfly catheter was inserted in the lateral ear vein to use for infusions. Each blood sample (0.2 ml) was collected from the central ear artery into a plastic syringe fitted with a 25 gauge, 5/8 inch needle and charged with 7.5% EDTA as an anticoagulant. Blood was immediately expressed into a microcentrifuge tubes containing 10 microliters of 7.5% EDTA. An initial arterial blood sample (#1) was obtained and immediately thereafter vehicle or the C5a analogue of Example 8 was infused intravenously (bolus injection). Twenty seconds later, a second blood sample (#2) was obtained and twenty seconds thereafter 100 ng of C5a in 0.2 ml were infused intravenously (bolus injection). Twenty seconds later, a third blood (#3) sample was taken. Thirty minutes later, a second round of blood sample (#4)----20 seconds--C5a infusion--20 seconds--blood sample (#5) was performed. Blood samples were evaluated by automated hematologic analysis (Technicon H*1) using software specific for rabbit blood. Reductions in neutrophil counts (number per milliliter) induced by C5a(C5a-induced neutropenia, determined by comparing blood sample #3 to #2 and #5 to #4) were compared between vehicle-treated and C5a analogue-treated animals.

[4] = target: T1, C5a receptor; experiment: C5a induced Ca++ rise assay in fura-2 loaded neutrophils; format: cell-based
Text: The antagonism of the instant C5a analogues may be quantified as an IC50 in the calcium rise assay disclosed in Seligmann et al., Agents and Actions 21:375-378 (1987), described in detail in Example 7.
See Hugli et al., CRC Crit. Rev. Immunol. 1:321-326 (1981) and PCT WO 92/10205. A quantitative measure of this property may also be obtained using the calcium rise assay disclosed in Seligmann et al., supra, also described in Example 7. EC50 is a measure of agonistic activity.
Recombinant human C5a was dissolved in Hanks buffer containing 0.01% Tween-20, and all stock dilutions of C5a were made in this buffer. The acetoxymethyl ester of fura-2 (fura 2AM, Molecular Probes) was dissolved in DMSO. Neutrophils were purified from human peripheral blood by sedimentation in 6% hetastarch (HESPAN, DuPont, Waukegan, Ill., followed by counter flow elutriation as described in Chapman-Kirkland et al., J. Immunol. Meth. 142:95-104 (1991). Purified cells (2×10^6/ ml) were mixed with 0.2 uM fura- 2AM and incubated for 30 min at 37° C. in HEPES buffered Hanks solution without calcium or magnesium. Fifteen minutes before the assay, the cell suspension was transferred to a curvette containing a stir bar and calcium was added to 1 mM. The cell suspension was incubated with stirring at 37° C. Assays were terminated within 5 h of cell purification and a standard control response was obtained periodically to insure that the cell responses were not changing over the time of the experiment. The amount of fluorescence was determined using an SLM 8000 spectrofluorometer (SLM-Aminco Instruments, Urbana, Ill.). Curvettes were placed in the fluorometer and after obtaining a baseline for 10 sec, the C5a receptor antagonists to be tested for antagonistic properties were added and any change in fluoresence excitation ratio of 340 nm/380 nm (emission of 510 nm) was measured. Forty seconds after analogue addition, a challenge dose of C5a was added to a final concentration of 100 pM and the resulting change in excitation ratio was measured.
IC50 values were used as a measure of antagonist potency. These values are defined as the concentration of C5a analogue needed to reduce the calcium rise response of the 100 pM C5a challenge dose by 50%. EC50 values were used as a measure of agonist potency. […]

[5] = Table 6, Example 10 comparison with decapeptide

Ki ([1]; Table 4, [125I]BH-C5a 4.0 pM, PMNL membranes, Cheng-Prusoff): 200 pM
Ki [1, 5]: 40 pM
IC50 [4, 5]: 51000 pM
Concentration up to which tested with agonist activity not detected ([4]; calcium rise assay): > 3 µM
B1: C5a (1-71, T1M, C27S, Q71C) (protein, UniProt P01031 678-751, looked up, variant T1M C27S Q71C)
C5a anaphylatoxin: MLQKKIEEIAAKYKHSVVKKCCYDGASVNNDETCEQRAARISLGPRCIKAFTECCVVASQLRANISHKDMCLGR
modifications: C5a anaphylatoxin
Pro-inflammatory reaction (agonist properties in vivo) ([2]; analogue at 175 ng/site intradermally): did not cause a pro-inflammatory reaction
ID50 (dose causing 50% reduction in radioactivity produced by C5a) ([2]; co-injected intradermally with 50 ng C5a/site): 70 ng/site
Effect on baseline neutrophil counts (agonistic, C5a-like properties) ([3]; before C5a challenge): did not alter baseline neutrophil counts from normal
Inhibition of C5a-induced neutropenia versus vehicle-treated rabbits ([3]; 30-minute C5a challenge interval): 41%
Inhibition of C5a-induced neutropenia versus vehicle-treated rabbits ([3]; 40-second C5a challenge interval): 67%
